pKi: −log10 of the molar value.
Target: Trypsin (UniProt P00761)
Test: enzyme inhibition assay

## C12-EETI-II (lauroyl, C12:0, fatty acylated EETI-II) (peptide)
  pKi: 9.99

## C14-EETI-II (myristoyl, C14:0, fatty acylated EETI-II) (peptide)
  pKi: 10.00

## C16-EETI-II (palmitoyl, C16:0, fatty acylated EETI-II) (peptide)
  pKi: 9.88

## C18-EETI-II (stearoyl, C18:0, fatty acylated EETI-II; octadecanedioic acid conjugate) (peptide)
  pKi: 9.90

Source: PMC8529511
